Biological target: T1, Biot-CC2-LZ (Mus musculus, UniProt O88522)
T1 construct: made in house; host or cells: chemical synthesis
Assay: HTRF assay, complex with Biot-CC2-LZ (negative and positive controls)
Assay type: binding
Conditions: 50 nM His-tagged protein with 50 nM Biot-CC2-LZ, Strept-Eu 2 nM, AntiHis-XL 7 nM
Source text: The Homogeneous Time Resolved Fluorescence (HTRF®) assay reagents anti-(His)6 monoclonal antibody labeled with XL665 (MABHis6-XL) and streptavidin-Europium cryptate (streptavidin-EuK) were purchased from CIS-Bio. The His-CC2-LZ peptide (SEQ ID NO: 30 and 31) was purified as described in Agou et al., 2004a and the biotin tagged CC2-LZ peptide (SEQ ID NO: 28 and 29) was chemically synthezised as described in Wyler et al., 2007.
In HTRF experiments, the pure His-CC2-LZ protein was labeled by anti-His-XL665 mAb and biot-CC2-LZ was labeled by streptavidin-EuK. Dimerization of His-CC2-LZ and Biot-CC2-LZ leads the donor (Steptavidin-EuK) and the acceptor (anti-His-XL665) into close proximity. Upon excitation of Europium cryptate at 320 nm, FRET occurs between these two fluorophores, and XL665 re-emits a specific long-lived fluorescence at 665 nm.
All experiments were carried out in a black microplate Greiner (200 μl) at 25° C. The excitation wavelength was 320 nm and the fluorescence emissions were measured at 620 nm and at 665 nm to normalize the specific signal. Fluorescence emission was recorded at both wavelengths after an 50 μs delay, which reduces background noise introduced by the media and the free acceptor molecules. The FRET signal is calculated using the following equation:
ΔF=[(R−Rneg)/Rneg]*100 (1) […]

B1: His-CC2-LZ: six his-tagged CC2-LZ peptide, recombinant, SEQ ID NO: 30 (humanised 31) (protein)
chain: MGSHHHHHHSSGLVPRGSHMASLEDLRQQLQQAEEALVAKQELIDKLKEEAEQHKIVMETVPVLKAQADIYKADFQAERHAREKLVEKKEYLQEQLEQLQREFNKL
For B1, the “FRET (ΔF %)” value was “≦0%”.

Reference: patent publication US20100240040A1, “METHOD FOR SCREENING FOR SELECTIVE MODULATOR OF THE NF-KB PATHWAY ACTIVATION” (INSTITUT PASTEUR, priority 2007, published 2010)
